Data published in patent US20230074436A1 (DENALI THERAPEUTICS, published 2023).
No end group written: not given here. *: point of attachment. Biotin = O=C1N[C@H]2[C@H](CS[C@H]2CCCCC(=O)*)N1

What was measured:
asyn_113-127 = target: T1, asyn_113-127 (human); test: Ala-scan peptide ELISA, row G, run 2
T1 construct: also called pep1
T1 peptide: Biotin-LEDMPVDPDNEAYEM
Description: (§1) 96-well Nunc plates were coated with 50 μL per well of 1 μg/mL streptavidin (from Jackson Immuno Research Laboratory) in PBS at 4° C. overnight. The plates were washed three times with PBST, and blocked with PBS containing 3% BSA at room temperature for 1 hour. The N-terminal biotinylated peptides were dissolved in Milli Q water to a concentration of 2 mg/mL, then further diluted to a concentration of 2 μg/mL with PBS. 50 μl of the diluted peptide was applied to the streptavidin-coated plates and incubated at 4° C. overnight. 2 μg/mL of biotinylated human alpha-synuclein was used as the positive control. The plates were washed three times with PBST before use. Purified antibody was diluted by serial dilution methods, from 20 μg/mL to 1 ng/mL, and 50 μL of the antibody solution was added to the peptide-coated wells. The plates were incubated for 1 hour at room temperature, then washed three times with PBST. Secondary detection antibody (goat anti-rat HRP (obtained from Southern Biotech)) was added with 1:5,000 dilutions and incubated for 1 hour at room temperature, then washed three times with PBST. Plates were developed with 50 μL/well of TMB substrate (Thermo Fisher) and quenched with 50 μL/well of 1 N sulfuric acid. The signal was quantified on a BioTek® plate reader at A450. A parallel repeat was performed for each peptide in a separate plate.

asyn_113-127_113A [1] = target: T2, asyn_113-127_113A (human); test: Ala-scan peptide ELISA, row G, run 2
T2 construct: substitution is already in the entry; also called pep2
T2 peptide: Biotin-AEDMPVDPDNEAYEM
Description: as §1

asyn_113-127_114A [2] = target: T3, asyn_113-127_114A (human); test: Ala-scan peptide ELISA, row G, run 2
T3 construct: substitution is already in the entry; also called pep3
T3 peptide: Biotin-LADMPVDPDNEAYEM
Description: as §1

asyn_113-127_115A [3] = target: T4, asyn_113-127_115A (human); test: Ala-scan peptide ELISA, row G, run 2
T4 construct: substitution is already in the entry; also called pep4
T4 peptide: Biotin-LEAMPVDPDNEAYEM
Description: as §1

asyn_113-127_116A [4] = target: T5, asyn_113-127_116A (human); test: Ala-scan peptide ELISA, row G, run 2
T5 construct: substitution is already in the entry; also called pep5
T5 peptide: Biotin-LEDAPVDPDNEAYEM
Description: as §1

asyn_113-127_117A [5] = target: T6, asyn_113-127_117A (human); test: Ala-scan peptide ELISA, row G, run 2
T6 construct: substitution is already in the entry; also called pep6
T6 peptide: Biotin-LEDMAVDPDNEAYEM
Description: as §1

asyn_113-127_118A [6] = target: T7, asyn_113-127_118A (human); test: Ala-scan peptide ELISA, row G, run 2
T7 construct: substitution is already in the entry; also called pep7
T7 peptide: Biotin-LEDMPADPDNEAYEM
Description: as §1

asyn_113-127_119A [7] = target: T8, asyn_113-127_119A (human); test: Ala-scan peptide ELISA, row G, run 2
T8 construct: substitution is already in the entry; also called pep8
T8 peptide: Biotin-LEDMPVAPDNEAYEM
Description: as §1

asyn_113-127_120A = target: T9, asyn_113-127_120A (human); test: Ala-scan peptide ELISA, row G, run 2
T9 construct: substitution is already in the entry; also called pep9
T9 peptide: Biotin-LEDMPVDADNEAYEM
Description: as §1

asyn_113-127_121A [8] = target: T10, asyn_113-127_121A (human); test: Ala-scan peptide ELISA, row G, run 2
T10 construct: substitution is already in the entry; also called pep10
T10 peptide: Biotin-LEDMPVDPANEAYEM
Description: as §1

asyn_113-127_122A [9] = target: T11, asyn_113-127_122A (human); test: Ala-scan peptide ELISA, row G, run 2
T11 construct: substitution is already in the entry; also called pep11
T11 peptide: Biotin-LEDMPVDPDAEAYEM
Description: as §1

asyn_113-127_123A [10] = target: T12, asyn_113-127_123A (human); test: Ala-scan peptide ELISA, row G, run 2
T12 construct: substitution is already in the entry; also called pep12
T12 peptide: Biotin-LEDMPVDPDNAAYEM
Description: as §1

asyn_113-127_124G [11] = target: T13, asyn_113-127_124G (human); test: Ala-scan peptide ELISA, row G, run 2
T13 construct: substitution is already in the entry; also called pep13
T13 peptide: Biotin-LEDMPVDPDNEGYEM
Description: as §1

asyn_113-127_124P [12] = target: T14, asyn_113-127_124P (human); test: Ala-scan peptide ELISA, row G, run 2
T14 construct: substitution is already in the entry; also called pep14
T14 peptide: Biotin-LEDMPVDPDNEPYEM
Description: as §1

asyn_113-127_125A [13] = target: T15, asyn_113-127_125A (human); test: Ala-scan peptide ELISA, row G, run 2
T15 construct: substitution is already in the entry; also called pep15
T15 peptide: Biotin-LEDMPVDPDNEAAEM
Description: as §1

asyn_113-127_126A [14] = target: T16, asyn_113-127_126A (human); test: Ala-scan peptide ELISA, row G, run 2
T16 construct: substitution is already in the entry; also called pep16
T16 peptide: Biotin-LEDMPVDPDNEAYAM
Description: as §1

asyn_113-127_127A = target: T17, asyn_113-127_127A (human); test: Ala-scan peptide ELISA, row G, run 2
T17 construct: substitution is already in the entry; also called pep17
T17 peptide: Biotin-LEDMPVDPDNEAYEA
Description: as §1

[15] = target: T18, biotinylated human alpha-synuclein (human, UniProt P37840 1-140); test: Ala-scan peptide ELISA, row G, run 2
Description: as §1

asyn_113-127_113A [16] = target: T2, asyn_113-127_113A; test: Ala-scan peptide ELISA, row H, run 1
Description: as §1

asyn_113-127_114A [17] = target: T3, asyn_113-127_114A; test: Ala-scan peptide ELISA, row H, run 1
Description: as §1

asyn_113-127_115A [18] = target: T4, asyn_113-127_115A; test: Ala-scan peptide ELISA, row H, run 1
Description: as §1

asyn_113-127_116A [19] = target: T5, asyn_113-127_116A; test: Ala-scan peptide ELISA, row H, run 1
Description: as §1

asyn_113-127_117A [20] = target: T6, asyn_113-127_117A; test: Ala-scan peptide ELISA, row H, run 1
Description: as §1

asyn_113-127_118A [21] = target: T7, asyn_113-127_118A; test: Ala-scan peptide ELISA, row H, run 1
Description: as §1

asyn_113-127_119A [22] = target: T8, asyn_113-127_119A; test: Ala-scan peptide ELISA, row H, run 1
Description: as §1

asyn_113-127_121A [23] = target: T10, asyn_113-127_121A; test: Ala-scan peptide ELISA, row H, run 1
Description: as §1

asyn_113-127_122A [24] = target: T11, asyn_113-127_122A; test: Ala-scan peptide ELISA, row H, run 1
Description: as §1

asyn_113-127_123A [25] = target: T12, asyn_113-127_123A; test: Ala-scan peptide ELISA, row H, run 1
Description: as §1

asyn_113-127_124G [26] = target: T13, asyn_113-127_124G; test: Ala-scan peptide ELISA, row H, run 1
Description: as §1

asyn_113-127_124P [27] = target: T14, asyn_113-127_124P; test: Ala-scan peptide ELISA, row H, run 1
Description: as §1

asyn_113-127_125A [28] = target: T15, asyn_113-127_125A; test: Ala-scan peptide ELISA, row H, run 1
Description: as §1

asyn_113-127_126A [29] = target: T16, asyn_113-127_126A; test: Ala-scan peptide ELISA, row H, run 1
Description: as §1

[30] = target: T18, biotinylated human alpha-synuclein; test: Ala-scan peptide ELISA, row H, run 1
Description: as §1

asyn_113-127_115A [31] = target: T4, asyn_113-127_115A; test: Ala-scan peptide ELISA, row H, run 2
Description: as §1

asyn_113-127_118A [32] = target: T7, asyn_113-127_118A; test: Ala-scan peptide ELISA, row H, run 2
Description: as §1

asyn_113-127_125A [33] = target: T15, asyn_113-127_125A; test: Ala-scan peptide ELISA, row H, run 2
Description: as §1

B1: 20H4 (antibody, rat IgG2b, V domains shown)
VH: AVQLVESGGGLVQPKESLKISCAASGFTFSNAAMYWVRQAPGKGLELLARIRTKPNNYATYHADSVKGRFTISRDDSQSMVYLHMGNLKTEDTAMYYCTADMATGDYWGPGVMVTVSS
VL: DIQMTQSPPVLSVSVGDRVTLSCKASQNINKNLDWYQQKHGEAPKPLIYSTNNLQTGVPSRFSGSGSGTDYTLTISSLQPEDVATYYCYQYKSAWTFGGGTKLELR
notes: also called clone 20H4; rat 20H4
asyn_113-127
  A450: 0.089 OD
asyn_113-127_113A [1]
  A450: 0.095 OD
asyn_113-127_114A [2]
  A450: 0.093 OD
asyn_113-127_115A [3]
  A450: 0.057 OD
asyn_113-127_116A [4]
  A450: 0.101 OD
asyn_113-127_117A [5]
  A450: 0.108 OD
asyn_113-127_118A [6]
  A450: 0.109 OD
asyn_113-127_119A [7]
  A450: 0.05 OD
asyn_113-127_120A
  A450: 0.072 OD
asyn_113-127_121A [8]
  A450: 0.097 OD
asyn_113-127_122A [9]
  A450: 0.048 OD
asyn_113-127_123A [10]
  A450: 0.103 OD
asyn_113-127_124G [11]
  A450: 0.095 OD
asyn_113-127_124P [12]
  A450: 0.048 OD
asyn_113-127_125A [13]
  A450: 0.049 OD
asyn_113-127_126A [14]
  A450: 0.101 OD
asyn_113-127_127A
  A450: 0.092 OD
[15]
  A450: 0.152 OD
asyn_113-127_113A [16]
  A450: 0.068 OD
asyn_113-127_114A [17]
  A450: 0.061 OD
asyn_113-127_115A [18]
  A450: 0.051 OD
asyn_113-127_116A [19]
  A450: 0.071 OD
asyn_113-127_117A [20]
  A450: 0.071 OD
asyn_113-127_118A [21]
  A450: 0.069 OD
asyn_113-127_119A [22]
  A450: 0.048 OD
asyn_113-127_121A [23]
  A450: 0.068 OD
asyn_113-127_122A [24]
  A450: 0.049 OD
asyn_113-127_123A [25]
  A450: 0.068 OD
asyn_113-127_124G [26]
  A450: 0.065 OD
asyn_113-127_124P [27]
  A450: 0.049 OD
asyn_113-127_125A [28]
  A450: 0.047 OD
asyn_113-127_126A [29]
  A450: 0.07 OD
[30]
  A450: 0.086 OD
asyn_113-127_115A [31]
  A450: 0.052 OD
asyn_113-127_118A [32]
  A450: 0.071 OD
asyn_113-127_125A [33]
  A450: 0.049 OD
